Test [1] concerns mouse adult SVZ NSCs. Kind of test: Gene expression by quantitative real-time PCR in adult SVZ NSCs. The test is classed as cell-based. To be noted: 48 h after stimulation. On the procedure:
Real-time Quantitative PCR. 24 h cells after plating cells were stimulated with 1 activation unit of CD95L-T4. After 48 h RNA was isolated using the RNeasy Mini Kit (Qiagen). Real-time quantitative PCR was carried out using Sybr Green core kits (Eurogentec) and Uracil-N-glycosylase (Eurogentec). For determining CD95L induction after global ischemia, the hippocampi were dissected out and stored in RNAlater reagent (Ambion). RNA was extracted using the RNeasy Mini Kit (Qiagen). Real-time quantitative PCR was carried out using Sybr Green core kits (Eurogentec) and Uracil-N-glycosylase (Eurogentec). Primers used for quantitative real-time PCR were designed using Primer 3 software (http://fokker.wi.mit.edu/cgi-bin/primer3/primer3_www.cgi).
(In general: Quantitative PCR measures a nucleic acid by following its amplification.)

The subject of test [2] is NSCs. Kind of test: Apoptosis and caspase activity in NSCs. The test is classed as cell-based, mouse. The protocol:
For staining of intracellular markers, cells were harvested, fixed with 4% PFA for 10 min on ice, washed and permeabilized using 0.1% Saponin (Sigma-Aldrich) in PBS with 10% FCS (SAP). Cells were incubated with primary antibody or isotype for 30 min on ice. Cells were washed three time with SAP and incubated with secondary antibody for 30 min on ice. Cells were washed again three times with SAP and analysed. Antibodies used were: anti β-III-tubulin (Chemicon) 1:100, anti GFAP (Chemicon) 1:100 and isotype mouse IgG1 (Sigma) 1:20. Secondary antibody was goat anti-mouse PE 1:100 (Dianova). To quantify DNA fragmentation, cells detached with trypsin were centrifuged, washed and fixed with 70% ethanol at −20° C. for 1 h. Fixed cells were resuspended in a hypotonic lysis buffer (0.1% sodium citrate and 0.1% Triton X-100) containing […] of propidium iodide, incubated at 4° C. overnight. After final washings, all samples were analysed using a FACS-Calibur (Becton Dickinson) and CellQuest Software (Becton Dickinson).
Caspase Activity Assay. Apostat Intracellular Caspase Detection Caspase Activity Assay was purchased from R&D Systems. Assay was performed according to the manufacturers' instructions and analyzed using a FACSCalibur (Becton Dickinson) and CellQuest software (Becton Dickinson).

Test [3] deals with human neural progenitor cells. Kind of test: Neuronal differentiation (β-III-tubulin) of human neural progenitor cells after growth factor removal. The test is classed as cell-based. On the procedure:
Immunostainings. Immunohistochemistry and Immunocytochemistry were performed as previously described. Primary antibodies used were anti GFP (chicken) (Ayes Labs) 1:1000, anti NeuN (mouse), (Chemicon) 1:200, anti β-III-tubulin (mouse) (Chemicon 1:200), anti GFAP (mouse) (Chemicon 1:200), active-β-Catenin (mouse) (P-Ser37 or P-Thr41; 1:800) (Upstate), phosphorylated GSK3β (P-Ser9-GSK3β, 1:1000). The mouse Pax6 antibody developed by A. Kawakami was obtained from the Developmental Studies Hybridoma Bank developed under auspices of the NICHD and maintained by The University of Iowa, Department of Biological Sciences, Iowa City, Iowa 52242. Secondary antibodies used were goat anti-rabbit alexa 488 (Molecular Probes) 1:500, goat anti-mouse rhodamine X (Dianova) 1:200, Dapi (Sigma) 1:3000, donkey anti-chicken FITC (Dianova) 1:200.
Human neural progenitor generation and culture. The human ES cell line H9.2 was cultivated on mitotically inactivated mouse embryonic fibroblasts (MEFs) in Knockout Dulbecco's Modified Eagle Medium (KO-DMEM, Gibco) containing 20% Knockout Serum Replacement, 1% non-essential amino acids, 1 mM I-glutamine, 0.1 mM β-mercaptoethanol (all from Gibco), and 4 ng/ml human basic fibroblast growth factor (FGF-2, Invitrogen). Cells were routinely passaged every four days by treatment with 100 units collagenase IV (Gibco) for one hour. […]

B1: CD95L: the ligand for CD95 (APO-1/Fas) (protein, listed as Homo sapiens)
chain: MQQPFNYPYPQIYWVDSSASSPWAPPGTVLPCPTSVPRRPGQRRPPPPPPPPPLPPPPPPPPLPPLPLPPLKKRGNHSTGLCLLVMFFMVLVALVGLGLGMFQLFHLQKELAELRESTSQMHTASSLEKQIGHPSPPPEKKELRKVAHLTGKSNSRSMPLEWEDTYGIVLLSGVKYKKGGLVINETGLYFVYSKVYFRGQSCNNLPLSHKVYMRNSKYPQDLVMMEGKMMSYCTTGQMWARSSYLGAVFNLTSADHLYVNVSELSLVNFEESQTFFGLYKL
modifications: CHAIN (1)..(281) This feature is the amino acid sequence for CD95L protein. CD95L is a ligand for CD95. CD95 is APO-1/Fas and a member of the tumor necrosis factor receptor superfamily.
As for B1, the “Neurogenin (Ngn1) expression” value in test [1] is reported as “much higher”. In addition, the apoptosis result in test [2] was “could not detect apoptosis”. Moreover, the “number of neurons / β-III-tubulin positive cells” value in test [3] is recorded as “strikingly increased number of neurons”.

The values are drawn from US20110300113A1, “Death Receptor CD95 Controls Neurogenesis of Adult Neural Stem Cells in Vivo and in Vitro” (DEUTSCHES KREBSFORSCHUNGSZENTRUM, priority 2006, published 2011).
